Measurements: patent US20260284219A1, “ANTIBODY CONJUGATE, AND USES THEREOF” (Acepodia Biotechnologies, Ltd., priority 2024, published 2026)

What was measured:
[1] = molecular target: His-tagged human PDL1 recombinant protein (Homo sapiens, UniProt Q9NZQ7); test: Binding affinity ELISA on plates coated with PDL1; settings: for EC50: N = 3; for EC50 of the conjugate relative to EC50 of atezolizumab: PDL1 binding; for PDL1 binding signal compared with atezolizumab: among the concentration range, signal at 450 nm
His-tagged human PDL1 recombinant protein, sequence (Q9NZQ7 19-290): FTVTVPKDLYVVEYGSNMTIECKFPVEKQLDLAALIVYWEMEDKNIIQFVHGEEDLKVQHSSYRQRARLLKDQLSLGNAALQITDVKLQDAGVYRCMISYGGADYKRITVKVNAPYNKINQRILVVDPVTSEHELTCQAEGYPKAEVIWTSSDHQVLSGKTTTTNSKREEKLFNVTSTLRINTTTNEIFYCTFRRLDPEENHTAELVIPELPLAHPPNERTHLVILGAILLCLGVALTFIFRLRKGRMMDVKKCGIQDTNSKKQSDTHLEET
Procedure: The blocked His-tagged human PDL1 recombinant protein-coated white plate was then incubated with atezolizumab, atezolizumab-govitecan (DAR10), or the isotype control antibody at different concentrations at 37° C. for 1 hour. The unbound atezolizumab, atezolizumab-govitecan (DAR10), or the isotype control antibody was washed away with PBST.
The blocked His-tagged human PDL1 recombinant protein-coated white plate was then incubated with atezolizumab or atezolizumab-deruxtecan-vcMMAE (DAR 10) at different concentrations at 37° C. for 1 hour. The unbound atezolizumab or atezolizumab-deruxtecan-vcMMAE (DAR 10) was washed away with PBST.

[2] = Aggregation by size exclusion chromatography HPLC (SEC-HPLC); type: physicochemical; settings: SEC-HPLC of DAR10 dual-payload antibody drug conjugates
[3] = test system: human triple-negative breast cancer MDA-MB-231 cells; test: Cytotoxicity assay (CellTiter-Glo 2.0), MDA-MB-231; type: cell-based; settings: for cancer cells killed compared with atezolizumab: MDA-MB-231, 6 days, FIG. 6B; for cytotoxicity against MDA-MB-231: atezolizumab conjugates, 0.01-500 nM for 6 days
Procedure: Each condition was performed in triplicate. On the harvesting day, the number of viable cells in each well were measured according to the CellTiter-Glo™ 2.0 Assay process.

## atezolizumab-govitecan (DAR10): Atezolizumab with 8 govitecan on light and heavy chain cysteines and 2 govitecan on light-chain lysines (DAR10)
[1]; Embodiment 1-3, FIG. 5
  EC50: 0.75 nM
[1]
  EC50 of the conjugate relative to EC50 of atezolizumab: less than 2 times
  PDL1 binding signal compared with atezolizumab: no significant difference of signal detection
[2]
  protein aggregation: resistant to protein aggregation
[3]
  cancer cells killed compared with atezolizumab: 50%
  cytotoxicity against MDA-MB-231: better cytotoxicity
[3]; listed as PDP-PDL1 mab-govitecan
  cytotoxicity against MDA-MB-231: exhibits cytotoxicity

## atezolizumab-deruxtecan-vcMMAE (DAR 10): Atezolizumab with 8 deruxtecan on cysteines and 2 vcMMAE on light-chain lysines (DAR10)
[1]; Embodiment 2-3, FIG. 9
  EC50: 1.56 nM
[1]
  EC50 of the conjugate relative to EC50 of atezolizumab: less than 2 times
  PDL1 binding signal compared with atezolizumab: no significant difference of signal detection
[2]
  protein aggregation: resistant to protein aggregation
[3]
  cytotoxicity against MDA-MB-231: better cytotoxicity

## atezolizumab-govitecan (DAR8): Atezolizumab with 8 govitecan conjugated to cysteines by procedure (A) only (DAR8)
[3]
  cancer cells killed compared with atezolizumab: 25%

## atezolizumab: commercially available anti-PDL1 IgG1 antibody (DAR0) [reference compound]
[1]; Embodiment 1-3, FIG. 5
  EC50: 0.55 nM
[1]; Embodiment 2-3, FIG. 9
  EC50: 1.4 nM
